Target: TD peptide
Experiment: ELISA, peptide captured on streptavidin

B1: mAb 5133 (CR5133, IgG1 wt; Table 1 Construct 1) (antibody)
heavy: not shown
light: EIVLTQSPATLSLSPGERATLSCRASQSVSGYLGWYQQKPGQAPRLLIYGASSRATGIPDRFSGSGSGTDFTLTISRLEPEDFAVYYCQQYGSSPLTFGGGTKLEIKRTVAAPSVFIFPPSDEQLKSGTASVVCLLNNFYPREAKVQWKVDNALQSGNSQESVTEQDSKDSTYSLSSTLTLSKADYEKHKVYACEVTHQGLSSPVTKSFNRGEC
B1: no binding.
